The RNAGym collection of RNA variant scans (doi:10.7554/elife.90254)

B1: LINE1-full (parent)
chain: UACGUAGGUGGUUUUCCCCUGAUAGUGCUAAGGGGGCCUGGAAGUUUGGACUGGGCAGAGCUCAACACAGCGUGGCAAAGUGGCUGUGGCUAGACUGCCUCUCUGGAUUCCUCGUCACUCAGCAGGGCAUCUCUGAGAGAAAUGCC

Variants of: B1
Assay: self-cleavage, relative activity (ratio to wild type); higher = more cleavage; in vitro, sequencing; the parent is a self-cleaving ribozyme
For A50G G105C, the self-cleavage was 1.11.
With C3A A138G the self-cleavage was 0.92.
With U45C A129G the self-cleavage was 1.4.
Variant A67G G74A has a self-cleavage of 0.45.
For U29C U134C, the self-cleavage was 1.37.
With G10A A43G the self-cleavage was 0.83.
With U39A A77U the self-cleavage was 1.38.
For U12C U26G, the self-cleavage was 0.58.
For U20A A94G, the self-cleavage was 0.18.
U29C C63A gave a self-cleavage of 0.07.
U13C A140G gave a self-cleavage of 1.23.
A92G U134A gave a self-cleavage of 0.
With C19G U85C the self-cleavage was 0.24.
U119C A136U gave a self-cleavage of 1.87.
Work on G32A U46C yielded a self-cleavage of 1.19.
Variant A129C A138U has a self-cleavage of 0.57.
Work on U62C A121C yielded a self-cleavage of 0.15.
In the case of G86A A142G, the self-cleavage is reported as 0.06.
U46C U52A showed a self-cleavage of 1.45.
Work on U45G A107G yielded a self-cleavage of 0.
U13A U73A gave a self-cleavage of 1.04.
A64G G75A gave a self-cleavage of 0.17.
Work on A22G G83U yielded a self-cleavage of 0.58.
A107U A129G showed a self-cleavage of 2.12.
Variant G27A C111A has a self-cleavage of 1.16.
Variant A24G G139U has a self-cleavage of 2.56.
In the case of G4A C19U, the self-cleavage is reported as 0.59.
With U47C C56U the self-cleavage was 0.42.
U26A A79G gave a self-cleavage of 0.75.
C63U A129U showed a self-cleavage of 0.54.
With U12G A69U the self-cleavage was 0.08.
U9C A64G gave a self-cleavage of 0.45.
Work on G21U A136G yielded a self-cleavage of 1.84.
Work on G48U A129G yielded a self-cleavage of 1.23.
Work on G54A U87C yielded a self-cleavage of 0.1.
C131G A138G gave a self-cleavage of 2.49.
With U9A G32A the self-cleavage was 1.73.
For G97U C145U, the self-cleavage was 0.04.
Work on U26C C98U yielded a self-cleavage of 0.11.
With C66U U102A the self-cleavage was 0.06.
For G105U A117G, the self-cleavage was 1.74.
A24G U108C gave a self-cleavage of 1.68.
For A30C A121G, the self-cleavage was 2.42.
Work on G36U A141G yielded a self-cleavage of 0.91.
Work on U26C C133U yielded a self-cleavage of 0.98.
With A65U C146U the self-cleavage was 0.16.
U9G C116G gave a self-cleavage of 1.18.
In the case of G80A U91A, the self-cleavage is reported as 0.76.
Variant A121G U143G has a self-cleavage of 0.5.
Variant U62C G106A has a self-cleavage of 0.08.
Work on C16U U87A yielded a self-cleavage of 0.05.
For G89A A138U, the self-cleavage was 0.05.
With U47C A77G the self-cleavage was 2.3.
For A117U A136U, the self-cleavage was 1.67.
U39G U45C gave a self-cleavage of 1.82.
Work on U46A A79U yielded a self-cleavage of 2.16.
U130C U143A showed a self-cleavage of 1.51.
U62A A121G showed a self-cleavage of 0.06.
U91A A141G gave a self-cleavage of 0.51.
Work on U62C C113U yielded a self-cleavage of 0.
Work on G55U A117U yielded a self-cleavage of 0.46.
Variant U81A U132C has a self-cleavage of 2.25.
With C3U U132C the self-cleavage was 1.1.
Work on C68U A117G yielded a self-cleavage of 0.12.
For C37U A124U, the self-cleavage was 1.12.
Work on G25U U39A yielded a self-cleavage of 0.31.
With A43G A57C the self-cleavage was 0.09.
For A121G U130A, the self-cleavage was 1.25.
With U47C A140U the self-cleavage was 0.6.
Variant U112C A142G has a self-cleavage of 1.43.
Variant G97A A136G has a self-cleavage of 0.19.
In the case of U23A A31G, the self-cleavage is reported as 0.93.
Work on U29C A121U yielded a self-cleavage of 1.5.
In the case of A67G A140U, the self-cleavage is reported as 0.56.
For U109C C116U, the self-cleavage was 1.5.
In the case of A79G G106U, the self-cleavage is reported as 1.48.
In the case of U23C C66U, the self-cleavage is reported as 0.05.
With U47C A94U the self-cleavage was 0.52.
For G34U C146U, the self-cleavage was 1.39.
In the case of U45G C68U, the self-cleavage is reported as 0.12.
In the case of C28U A140U, the self-cleavage is reported as 0.95.
Work on U81A U143C yielded a self-cleavage of 1.95.
U62A U100C showed a self-cleavage of 0.23.
Variant C17G U52C has a self-cleavage of 1.22.
Variant U39A U119C has a self-cleavage of 1.44.
For A78G U119A, the self-cleavage was 1.33.
Variant U26C U143A has a self-cleavage of 1.44.
For U102A C131U, the self-cleavage was 1.26.
In the case of U26A G144A, the self-cleavage is reported as 1.03.
With U81A G89A the self-cleavage was 0.
Variant A79U A124U has a self-cleavage of 0.67.
A67C A78U showed a self-cleavage of 0.07.
For G40U A67G, the self-cleavage was 0.21.
For U13C U102C, the self-cleavage was 1.4.
Variant U96C G137U has a self-cleavage of 0.06.
Variant G10A A124U has a self-cleavage of 2.3.
In the case of G8A A77U, the self-cleavage is reported as 1.23.
Variant U73G U119C has a self-cleavage of 1.57.
Variant A78C A124G has a self-cleavage of 0.94.
Variant A42U U81C has a self-cleavage of 1.28.
Variant C38U U112C has a self-cleavage of 1.35.
For A59G A69U, the self-cleavage was 0.06.
Variant U47G U85C has a self-cleavage of 0.33.
Variant U52C A140U has a self-cleavage of 1.15.
For U85A C98A, the self-cleavage was 0.07.
In the case of A79G U112C, the self-cleavage is reported as 1.74.
For A69U G89A, the self-cleavage was 0.04.
With U96G A117C the self-cleavage was 0.
Work on U12C A140G yielded a self-cleavage of 1.2.
C19U G36C showed a self-cleavage of 0.82.
Work on U15C U45G yielded a self-cleavage of 1.2.
With G106U A136U the self-cleavage was 0.83.
In the case of U100C A138U, the self-cleavage is reported as 1.51.
A59G C76U gave a self-cleavage of 0.12.
In the case of U9A C145U, the self-cleavage is reported as 1.64.
G36A U115C gave a self-cleavage of 1.53.
In the case of G25A U96C, the self-cleavage is reported as 0.
A59G U102C gave a self-cleavage of 0.1.
Variant G7U U112A has a self-cleavage of 1.06.
G127C A138G gave a self-cleavage of 1.31.
U45A U119C gave a self-cleavage of 1.47.
Work on U100C G139U yielded a self-cleavage of 2.03.
With U23C U81C the self-cleavage was 1.41.
U108A A136G gave a self-cleavage of 0.53.
Work on A67C U104C yielded a self-cleavage of 0.04.
Variant A69U A79U has a self-cleavage of 0.08.
Work on C116A U132A yielded a self-cleavage of 0.67.
For U81C U108C, the self-cleavage was 1.95.
With G36A A79G the self-cleavage was 0.96.
With U14C U91C the self-cleavage was 0.79.
U87G A140U showed a self-cleavage of 0.13.
U12C U91C showed a self-cleavage of 0.92.
Variant U13G U100A has a self-cleavage of 0.77.
For A43G A124C, the self-cleavage was 1.96.
With U96A U119A the self-cleavage was 0.09.
In the case of U62A U119C, the self-cleavage is reported as 0.03.
For C101U A121G, the self-cleavage was 1.72.
With U1C A57U the self-cleavage was 0.09.
U134A C145U gave a self-cleavage of 0.83.
With G55C C120U the self-cleavage was 0.27.
In the case of U46C U112C, the self-cleavage is reported as 1.78.
Variant A59C A138U has a self-cleavage of 1.62.
In the case of A69U C101U, the self-cleavage is reported as 0.03.
A2U showed a self-cleavage of 0.98.
Variant U115C A121U has a self-cleavage of 2.06.
Variant C19U A59G has a self-cleavage of 0.03.
Variant U9C A94C has a self-cleavage of 0.11.
C17U U96C gave a self-cleavage of 0.1.
With U9G U73C the self-cleavage was 1.24.
Variant U12C G72U has a self-cleavage of 1.13.
Variant A6G U15C has a self-cleavage of 0.84.
Variant U45A A136U has a self-cleavage of 1.9.
G36C A57G gave a self-cleavage of 0.9.
Variant C111U A121U has a self-cleavage of 1.28.
For U47A A69G, the self-cleavage was 0.52.
C38U A121G gave a self-cleavage of 1.72.
Work on G35A U143C yielded a self-cleavage of 1.04.
In the case of G88A A121U, the self-cleavage is reported as 0.04.
C17A A142C gave a self-cleavage of 1.9.
A65U U119A showed a self-cleavage of 0.21.
Work on G25C C116U yielded a self-cleavage of 1.52.
In the case of A50G U52C, the self-cleavage is reported as 1.08.
Variant A30U A65C has a self-cleavage of 0.1.
U46G U115C showed a self-cleavage of 1.69.
In the case of G7U U45C, the self-cleavage is reported as 0.86.
In the case of U52A U81G, the self-cleavage is reported as 1.63.
For U23C A42G, the self-cleavage was 1.18.
